# Test results reported in paper PMC5557857 (2017).
# T1: β10 peptide (synthetic) (Oplophorus gracilirostris, Synthetic 11-mer. The sequence is only in Table S1, so the high-affinity NanoBiT peptide 86 (HiBiT-type) variant of strand 10 is assumed. Termini are not stated.)
# T1 chain: VSGWRLFKKIS
# Key:
# [1] = target: epidermal growth factor receptor 2 (HER2) expressed on SKOV3 cells (human (endogenous in SKOV3)) (UniProt P04626); assay: split reporter (BiFC, NanoBiT); TEC screen: HER2-expressing SKOV3 cells incubated 1 hr at ambient temperature with clarified lysates of one β9 fusion and one β10 fusion (PBS + 1% BSA), washed 3 times, luminescence 30 min after Δ11S lysate (1:20) and Nano-Glo substrate; signal-to-background, average of three days
# [2] = target: T1, β10 peptide (synthetic); assay: luminescence complementation, 10 uM Nano-Glo substrate
molecule,measurement,setting,value
β10-G3 (DARPin G3 with β10 at the N-terminus) (designed binder),TEC signal-to-background with β9-L73J,[1],197
9.29-β10 (DARPin 9.29 with β10 at the C-terminus) (designed binder),TEC signal-to-background with PertH-β9,[1],346
same,TEC signal-to-background with β9-G3,[1],122
same,TEC signal-to-background with β9-L73J,[1],597
same,TEC signal-to-background with β9-LPert,[1],265
β9-G3 (DARPin G3 with β9 at the N-terminus) (designed binder),TEC signal-to-background with 9.29-β10,[1],122
same,TEC signal-to-background with 73JH-β10,[1],219
β9-9.29 (DARPin 9.29 with β9 at the N-terminus) (designed binder),TEC signal-to-background with PertH-β10,[1],671
same,TEC signal-to-background with β10-L73J,[1],173
G3-β10 (DARPin G3 with β10 at the C-terminus) (designed binder),TEC signal-to-background with PertH-β9,[1],103
same,TEC signal-to-background with β9-L73J,[1],1360
same,TEC signal-to-background with β9-LPert,[1],353
G3-β9 (DARPin G3 with β9 at the C-terminus) (designed binder),TEC signal-to-background with PertH-β10,[1],122
same,TEC signal-to-background with β10-L73J,[1],126
"11S (beta-strands 1-9 of NanoLuc, main fragment of NanoBiT) (domain or fragment) MVFTLEDFVGDWEQTAAYNLDQVLEQGGVSSLLQNLAVSVTPIQRIVRSGENALKIDIHVIIPYEGLSADQMAQIEEVFKVVYPVDDHHFKVILPYGTLVIDGVTPNMLNYFGRPYEGIAVFDGKKITVTGTLWNGNKIIDERLITPDGSMLFRVTINS",Kd,[2],4 nM
